Experimental data taken from the Human Domainome abundance scans (Beltran et al. 2025).
± gives the uncertainty stated by the source.

B1: Formin-binding protein 4, residues 200 to 261; numbered along this chain, Q8N3X1 (parent)
chain: SGWQYDTQCSLAGVGIEMGDWQEVWDENTGCYYYWNTQTNEVTWELPQYLATQVQGLQHYQP

Variants of: B1
Assay: abundance fitness (aPCA) (normalised: wild type 0, dead -1); higher = more abundant; growth selection in yeast, the domain comes from the species named
Settings: Homo sapiens

Variant | abundance fitness
SGWQYDTQCSLAGVGREMGDWQEVWDENTGCYYYWNTQTNEVTWELPQYLATQVQGLQHYQP [I16R] | -0.713 ± 0.068
SGWQYDTQCSLAGVGPEMGDWQEVWDENTGCYYYWNTQTNEVTWELPQYLATQVQGLQHYQP [I16P] | -0.735 ± 0.13
SGWQYDTQCSLAGVGWEMGDWQEVWDENTGCYYYWNTQTNEVTWELPQYLATQVQGLQHYQP [I16W] | -0.671 ± 0.092
SGWQYDTQCSLAGVGGEMGDWQEVWDENTGCYYYWNTQTNEVTWELPQYLATQVQGLQHYQP [I16G] | -0.763 ± 0.088
SGWQYDTQCSLAGVGSEMGDWQEVWDENTGCYYYWNTQTNEVTWELPQYLATQVQGLQHYQP [I16S] | -0.574 ± 0.094
SGWQYDTQCSLAGVGTEMGDWQEVWDENTGCYYYWNTQTNEVTWELPQYLATQVQGLQHYQP [I16T] | -0.506 ± 0.11
SGWQYDTQCSLAGVGNEMGDWQEVWDENTGCYYYWNTQTNEVTWELPQYLATQVQGLQHYQP [I16N] | -0.676 ± 0.33
SGWQYDTQCSLAGVGMEMGDWQEVWDENTGCYYYWNTQTNEVTWELPQYLATQVQGLQHYQP [I16M] | 0.08 ± 0.088
SGWQYDTQCSLAGVGYEMGDWQEVWDENTGCYYYWNTQTNEVTWELPQYLATQVQGLQHYQP [I16Y] | -0.334 ± 0.27
SGWQYDTQCSLAGVGCEMGDWQEVWDENTGCYYYWNTQTNEVTWELPQYLATQVQGLQHYQP [I16C] | -0.373 ± 0.12
SGWQYDTQCSLAGVGQEMGDWQEVWDENTGCYYYWNTQTNEVTWELPQYLATQVQGLQHYQP [I16Q] | -0.621 ± 0.12
SGWQYDTQCSLAGVGDEMGDWQEVWDENTGCYYYWNTQTNEVTWELPQYLATQVQGLQHYQP [I16D] | -0.742 ± 0.32
SGWQYDTQCSLAGVGLEMGDWQEVWDENTGCYYYWNTQTNEVTWELPQYLATQVQGLQHYQP [I16L] | -0.137 ± 0.064
SGWQYDTQCSLAGVGFEMGDWQEVWDENTGCYYYWNTQTNEVTWELPQYLATQVQGLQHYQP [I16F] | -0.195 ± 0.19
SGWQYDTQCSLAGVGVEMGDWQEVWDENTGCYYYWNTQTNEVTWELPQYLATQVQGLQHYQP [I16V] | 0.027 ± 0.058
SGWQYDTQCSLAGVGEEMGDWQEVWDENTGCYYYWNTQTNEVTWELPQYLATQVQGLQHYQP [I16E] | -0.507 ± 0.092
SGWQYDTQCSLAGVGAEMGDWQEVWDENTGCYYYWNTQTNEVTWELPQYLATQVQGLQHYQP [I16A] | -0.332 ± 0.082
SGWQYDTQCSLAGVGHEMGDWQEVWDENTGCYYYWNTQTNEVTWELPQYLATQVQGLQHYQP [I16H] | -0.8 ± 0.41
SGWQYDTQCSLAGVGKEMGDWQEVWDENTGCYYYWNTQTNEVTWELPQYLATQVQGLQHYQP [I16K] | -0.542 ± 0.15
SGWQYDTQCSLAGVNIEMGDWQEVWDENTGCYYYWNTQTNEVTWELPQYLATQVQGLQHYQP [G15N] | -0.21 ± 0.15
SGWQYDTQCSLAGVYIEMGDWQEVWDENTGCYYYWNTQTNEVTWELPQYLATQVQGLQHYQP [G15Y] | -0.661 ± 0.18
SGWQYDTQCSLAGVVIEMGDWQEVWDENTGCYYYWNTQTNEVTWELPQYLATQVQGLQHYQP [G15V] | -0.481 ± 0.075

Variant | abundance fitness
SGWQYDTQCSLAGVMIEMGDWQEVWDENTGCYYYWNTQTNEVTWELPQYLATQVQGLQHYQP [G15M] | -0.321 ± 0.12
SGWQYDTQCSLAGVTIEMGDWQEVWDENTGCYYYWNTQTNEVTWELPQYLATQVQGLQHYQP [G15T] | -0.099 ± 0.094
SGWQYDTQCSLAGVAIEMGDWQEVWDENTGCYYYWNTQTNEVTWELPQYLATQVQGLQHYQP [G15A] | 0.273 ± 0.057
SGWQYDTQCSLAGVDIEMGDWQEVWDENTGCYYYWNTQTNEVTWELPQYLATQVQGLQHYQP [G15D] | 0.132 ± 0.1
SGWQYDTQCSLAGVQIEMGDWQEVWDENTGCYYYWNTQTNEVTWELPQYLATQVQGLQHYQP [G15Q] | 0.1 ± 0.11
SGWQYDTQCSLAGVFIEMGDWQEVWDENTGCYYYWNTQTNEVTWELPQYLATQVQGLQHYQP [G15F] | -0.583 ± 0.14
SGWQYDTQCSLAGVPIEMGDWQEVWDENTGCYYYWNTQTNEVTWELPQYLATQVQGLQHYQP [G15P] | -0.03 ± 0.088
SGWQYDTQCSLAGVHIEMGDWQEVWDENTGCYYYWNTQTNEVTWELPQYLATQVQGLQHYQP [G15H] | -0.536 ± 0.16
SGWQYDTQCSLAGVLIEMGDWQEVWDENTGCYYYWNTQTNEVTWELPQYLATQVQGLQHYQP [G15L] | -0.638 ± 0.085
SGWQYDTQCSLAGVSIEMGDWQEVWDENTGCYYYWNTQTNEVTWELPQYLATQVQGLQHYQP [G15S] | -0.11 ± 0.087
SGWQYDTQCSLAGVKIEMGDWQEVWDENTGCYYYWNTQTNEVTWELPQYLATQVQGLQHYQP [G15K] | -0.073 ± 0.11
SGWQYDTQCSLAGVCIEMGDWQEVWDENTGCYYYWNTQTNEVTWELPQYLATQVQGLQHYQP [G15C] | -0.182 ± 0.11
SGWQYDTQCSLAGVEIEMGDWQEVWDENTGCYYYWNTQTNEVTWELPQYLATQVQGLQHYQP [G15E] | -0.178 ± 0.088
SGWQYDTQCSLAGVIIEMGDWQEVWDENTGCYYYWNTQTNEVTWELPQYLATQVQGLQHYQP [G15I] | -0.67 ± 0.18
SGWQYDTQCSLAGVRIEMGDWQEVWDENTGCYYYWNTQTNEVTWELPQYLATQVQGLQHYQP [G15R] | -0.071 ± 0.071
SGWQYDTQCSLAGVWIEMGDWQEVWDENTGCYYYWNTQTNEVTWELPQYLATQVQGLQHYQP [G15W] | -0.727 ± 0.16
SGWQYDTQCSLAGMGIEMGDWQEVWDENTGCYYYWNTQTNEVTWELPQYLATQVQGLQHYQP [V14M] | -0.028 ± 0.082
SGWQYDTQCSLAGDGIEMGDWQEVWDENTGCYYYWNTQTNEVTWELPQYLATQVQGLQHYQP [V14D] | -0.273 ± 0.24
SGWQYDTQCSLAGWGIEMGDWQEVWDENTGCYYYWNTQTNEVTWELPQYLATQVQGLQHYQP [V14W] | 0.055 ± 0.081
SGWQYDTQCSLAGKGIEMGDWQEVWDENTGCYYYWNTQTNEVTWELPQYLATQVQGLQHYQP [V14K] | 0.116 ± 0.068
SGWQYDTQCSLAGYGIEMGDWQEVWDENTGCYYYWNTQTNEVTWELPQYLATQVQGLQHYQP [V14Y] | 0.365 ± 0.13
